Experimental data published in FireProtDB (doi:10.1111/febs.13659).

B1: Cytosolic beta-glucosidase, O61594 (parent)
chain: MKLLVVLSLVAVACNASIVRQQRRFPDDFLFGTATASYQIEGAWDEDGKGENIWDYMVHNTPEVIRDLSNGDIAADSYHNYKRDVEMMRELGLDAYRFSLSWARILPTGMANEVNPAGIAFYNNYIDEMLKYNITPLITLYHWDLPQKLQELGGFANPLISDWFEDYARVVFENFGDRVKMFITFNEPREICFEGYGSATKAPILNATAMGAYLCAKNLVTAHAKAYYLYDREFRPVQGGQCGITISVNWFGPATPTPEDEMAAELRRQGEWGIYAHPIFSAEGGFPKELSDKIAEKSAQQGYPWSRLPEFTEEEKAFVRGTSDLIGVNHYTAFLVSATERKGPYPVPSLLDDVDTGSWADDSWLKSASAWLTLAPNSIHTALTHLNNLYNKPVFYITENGWSTDESRENSLIDDDRIQYYRASMESLLNCLDDGINLKGYMAWSLMDNFEWMEGYIERFGLYEVDFSDPARTRTPRKAAFVYKHIIKHRVVDYEYEPETMVMTIDEGH

Variants of: B1
Conditions: Spodoptera frugiperda, pH 6, Thermal, Potassium phosphate 10mM, transition: 2, structure 5CG0, whole UniProt chain shown
[1] = Differential Scanning Fluorimetry

Row | Variant | Tm (CD) [°C] | change of melting temperature, mutant - wild type (higher = more stable) (CD) [°C] | ddG of mutation (higher = less stable) (CD) [kcal/mol] | unfolding enthalpy (calorimetric) (CD) [kcal/mol] | unfolding free energy (CD) [kcal/mol] | Tm [1] [°C] | change of melting temperature, mutant - wild type (higher = more stable) [1] [°C]
1 | L389A | 46.4 | 0.4 | -0.67 | 81.1 | 23.9 | 46.6 | 1.6
2 | N249A | 38.5 | -7.5 | 0.94 | 48.2 | 22.3 | 39 | -6
3 | F251A | 42.2 | -3.8 | 0.67 | 52.3 | 22.5 | 42.4 | -2.6
4 | Y390A | 43 | -3 | 0.34 | 72.5 | 22.9 | 45.1 | 0.1
5 | E265A | 44.9 | -1.1 | -0.43 | 51.1 | 23.6 | 44.9 | -0.1
6 | S337F | – | – | – | – | – | 40.4 | -4.58
7 | S358A | – | – | – | – | – | 42 | -3
8 | L335A | 38.5 | -7.5 | 0.84 | 55.2 | 22.4 | 40 | -5
9 | Y420A | 37 | -9 | 1.42 | 47.8 | 21.8 | 37.2 | -7.8
10 | K366A | 41.5 | -4.5 | 1.25 | 74.6 | 22 | 41 | -4
11 | M262F | 45.7 | -0.3 | -0.53 | 91.7 | 23.7 | 45 | 0
12 | N391A | 44.4 | -1.6 | – | – | – | 46 | 1
13 | L350A | 43.5 | -2.5 | 0.7 | 61.4 | 22.5 | 43.8 | -1.2
14 | A263F | 39.6 | -6.4 | 0.43 | 44.2 | 22.8 | 40.6 | -4.4
15 | V336F | 30 | -16 | 2.14 | 51.6 | 21.1 | 34 | -11
16 | S247A | – | – | – | – | – | 45.3 | 0.3
17 | E261A | – | – | – | – | – | 46.2 | 1.2
18 | L100A | 46.4 | 0.4 | -0.81 | 53 | 24 | 47.6 | 2.6
19 | D260A | – | – | – | – | – | 40.8 | -4.2
20 | F334A | 42.9 | -3.1 | 1.11 | 72.5 | 22.1 | 42.5 | -2.5
